The nature of this series: yeast display, Sf9 membrane polyspecificity reagent, FACS + sequencing; frameworks hold sequencing errors. A digest of the protocol: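 Polyreactivity labels are assigned by the sorting gate from which each nanobody was recovered. The gates were low and high (top ~1%), set on anti-HA fluorescence for expression and streptavidin fluorescence for reagent binding. Before sorting, galactose-induced (36–48 hours) yeast display cells were stained for 1 hour at 4 °C with 10% biotinylated, detergent-solubilized Sf9 membrane reagent.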
For the sequence “QVQLVESGGGLVQAGGSIRLSCAASGFTITHYAMGWYRQAPGKERELVAAISASGGSTYYADSVKGRFTISRDNAKYTVYVQMNSLKPEDTAVYYCAATWDYRRGRYPYDYWGQGTQVTVSS”, the “polyreactivity (PSR sort gate)” value is “high polyreactivity”. As for “QVQLVESGGGLVQAGGSLRLSCAASGFTFGYNAMGWYRHAPGKERELVAAISYRDGSTYYADSVKGRFTISRDNAKNTVYLQMNSLKPEDTAVYYCAAEVWYPGWGYDYWGQGTQVTVSS”, the entry is “high polyreactivity”; as for “QVQLVESGGGLVQAGGSLRLSFAASGGTFRPYAMGWYRQAPGKETELVATIRSSGGRTYYADSVKGRFTISRDNAKNTVYLQMNSLKPEDTAVYYCAKRAQTYYGYDYWVQGTQVTVSS”, “high polyreactivity”; as for “QVQLVESGGGLVQAGGSLRLSCAASGRTIPYKSMGWYRQAPGKERELVAAITSGGTTNYADSVKGRFTISRDNAKNTVYLQMNSLKPVDTAVYYCAADSDASSQFRRDYWGQGTQVNVSS”, “low polyreactivity”. As to “QVQLVESGGGLVQAGGSLRLICAASGFTLADNGMGWYRQAPGKERELVATISGGGSTNYADSVKGRFTISRDNAKNTVYLQMISLKPEDTAVYYCAKEGRYSWYTLSEYDYWGQGTQVTVSS”, the “polyreactivity (PSR sort gate)” value was “low polyreactivity”.

In the case of “QVQLVESGGGLVQAGGSLRLSCAASGSIISFYAMGWYRQAPGKEREMVAVISDIGGSTYYADSVKGRFTISRDNAKNTDYLEMNSLKPEDTAVYYCAAGCHARTWYAYYYWGQGTQVTVSS”, the “polyreactivity (PSR sort gate)” value is recorded as “low polyreactivity”. As for “QVQLVESGGGLVQAGGSLRLSCAASGISFVYYAMGWYRQAPGKERELVAAITSDGGSTYYADSVKGRFTISRDNAKNTVYLQMNSLKPEDTAVYYCAAEWTSWSWWYGWYEFDYWGQGTQVTVSS”, the entry is “high polyreactivity”; as for “QVQLVESGGGLVQAGGSLRLSCAASGFTFRYYAMGWYRQAPGKERELVAAITSRGGSTYYADSVKGRFTISRDNAKNTVYLQMNSLKPEDTAVYYCAAETWRPSPYSRVSTYDYWGQGTQVTVSS”, “high polyreactivity”. For “QVQLVESGGGLVQAGGSLRLSCAASGGTFSRNVMGWYRQAPGTERELVAAISFSGGTTYYADSVKGRFTISRDNAKNTVYLQMISLKPEDTAVYYCAARPVNTVRPFDYWGQGTQVTVSS”, the “polyreactivity (PSR sort gate)” value is recorded as “high polyreactivity”.

Consider “QVQLVESGGGLVQAGGSLRLSCASSGRIFKYNAMGWYRQAPGKERELVAAISSSGARTYYADSVKGRFTISRDNAKNTVYLQMNSLKPEDTAVDYCAAPFTSNRSIRPYGYWGQGTQVTVSS”, for which the “polyreactivity (PSR sort gate)” value is “high polyreactivity”. Regarding “QVQLVESGGRLVKAGGSLRLSCPASGRIFADYAMGWYRQAPGKESELVADIRRSGGRTYYADSVKGRFTISRDNAKNTVYIQMNSLKPEDTAVYYCATDYGSWGDYSGNYDYWGQGTQVTVSS”, the “polyreactivity (PSR sort gate)” value is listed as “low polyreactivity”.

For the sequence “QVQLVESGGGLVQAGGSLRLSSAASGSTFRYNALGWYRQAPGKERELVAAISSSGGSTRYADSVKGRFTISRDNEKYTDYLQMNSLKPEDTAVYYCDVRFYDWRYYYWGQGTQVTVSS”, the “polyreactivity (PSR sort gate)” value is “high polyreactivity”. With “QVKLVESGGGLVQAGGSLRLSCAASGSTFAGTAMGWYRQAPGKEREMVAAISWNTGSTYADSVKGRFTISRDNAKNTVYLQMNSLKPEDTAVYYCAADRSHAYYRKNRVDYWGQGTQVTVSS”, the “polyreactivity (PSR sort gate)” value is “low polyreactivity”. The entry for “QVQLVESGGGVVQAGGSLRLICAASGSTFYINTMGWYRPAPGKERELVAAISWTGGRTYYADSVKGRFTISRDNAKNTVYLQLNSLKPEDTAVYYCAAYYNIPDRRRVGYDYWGQGTQVTVSS” is “high polyreactivity”; for “QVQLVESGGGLVQAGGSLRLSCAASGIIFSWYDMGWYRQAPGKERELVAAISSGDRTNYADSVKGRFTISRDNAKNTVYLQMNSLKPEDTAVYYCAADLFPIAGEYDYWGQGTQVTVSS” it is “high polyreactivity”; for “QVQLVESGGGLVQAGGSLRLSCAASGSIFPHNAMGWYRTAPGKDRELVAAISWRDVISYYADSVKGRFTISRDNAKNTVYLQMNSLKPEDTAVYYCAAELRVYGVDYEYWGQGTQVTVSS” it is “high polyreactivity”. On to “QVQLVESGGGLVQAGGSLRLSCAPSGFIFHKYVMGWYRQAPGKERELVAAISRSGASTYYADSVKGRFTISRDNAKNTVYLQMNSLKPEDTAVYYCNAQPGKWEYDYWGQGTQVTVSS”, for which the “polyreactivity (PSR sort gate)” value is listed as “high polyreactivity”. For the sequence “QVQLVESGGGLVQAGGSLRLSCAASGLTFYVYAMGWYRQAPGKEREFVAAISWSGTSTSYADSVKGRFTISRDNAKNTVYLQMNSLKPEDTAVYYCAADVHTPALYTYAAGDYWGQGTQVTVSS”, the “polyreactivity (PSR sort gate)” value is given as “low polyreactivity”. Consider “QVQLVESGGGLVQAGGSLRLSCAASGTTFPRYAMGWYRQAPGKERELVAAISSGGSTYYADSVKGRFTISRDNAKNTVYLQMNRLKPEDTAVYYCNARRSRSRYDYWGQGTQVTVSS”, for which the “polyreactivity (PSR sort gate)” value was “high polyreactivity”. As to “QVQLEESGGGLVQAGGSLRLICAASGGIFRYYAMGWSRQAPGKERELVAAITQSGARTYYADSVKGRFTISRDNAKNTVYLQMNSMKPEDTAVYYCAADRTGSRYNSWGQGTQVTVSS”, the “polyreactivity (PSR sort gate)” value was “high polyreactivity”. Regarding “QVQLVESGGGLVQAGGSLRLSCAASGFIVGRYAMGWYRQAPGNERELVAAITRSGGSTYYADSVKGRFTISRDNAKNTVYLQMISLKPEQTAVYFGAAYPGRAQVAYDYWGQGTQVTVSS”, the “polyreactivity (PSR sort gate)” value was “high polyreactivity”. The entry for “QVQLVDSGGGLVQAGGSLRLSCAASGRNFARYSMGWYRQAPGTERELVAAISWCGTSTYYADSVKGRYTISRDNAKNTVYLQMNSLKPEDTAVYYCAATYLYRDQPKWGGFAYTYGHWGQGTQVTVSS” is “high polyreactivity”; for “QVQLVESAGGLVQAGGSLRLSCAASGRIFPFYAMGWYRQAPGKERELVAAISWNGGSTFYADSVKGRFTISRDNAKNTVYLQMNSLKPEDTAVYYCNADCRPAYTYDYWGQGTQVTVSS” it is “low polyreactivity”. The entry for “QVQLVESVGGLVQAGGSLRLTCAASGFTFGPYAMGCYRQAAGKERELVAAITNRGGSTYADSVKGRFTISRDNAKNTVYLQMNSLKPEDTAVYYCATVSALEYNYWGQGTQVTVSS” is “low polyreactivity”. As to “QVQLVESGGGLVQAGGSLRLSCAASGRIFWANAMGWYRQAPGKERELVAAISRRGGSTYYADSVKGRFTISRDNAKNTVSLQMNSLKPEDTAVYYCNAVSPYTSDDYDYWGQGTQVTVSS”, the “polyreactivity (PSR sort gate)” value is reported as “high polyreactivity”. On to “QVQLVESGGGLVQAGGSLRLSCAASGLTFQEYAMGWYRQAPGKERELVAAISWSGGSTYYADSVKGRFTISRDNAKNTVYLQMNSLKPEDTAVYYCAAEAYEEFITGWYAYDYWGQGTQVTVSS”, for which the “polyreactivity (PSR sort gate)” value is listed as “high polyreactivity”.

Take “QVQLVESVGGLVQAGGSLRLSCAASGSIFSPYAMGWYRQAPGKERELVAGISRDGSTYYADSVKGRFTISRDNAKNTVYLQMNSMKPEDTAVYYCAATEFRYFEGGAYFEGYYWGQGTQVTVSS”: the “polyreactivity (PSR sort gate)” value is listed as “low polyreactivity”. As for “QVQLVESGGGLVQAGGSLRLSCAASGSIFHTYAMGWYRQAPGKEWELVAAISTDGSTYYADSVKGRFTISRDNAKNTVYLQRNSLKPEDTAVYYCNVAAKYDSFHRGITWYDYWGQGTQVTVSS”, the “polyreactivity (PSR sort gate)” value was “low polyreactivity”. The entry for “QVQLQEIVGGLVQAGGSLRLSCAASGNNFDADIMGLYRQAPGKERELVASVTDGGSTNYADSVKGRFTISRDNAKNSVYLQMNILKPEDTAVYYCAAIVYPDILTYFDYDYDYFYWGQGTQVTVGS” is “low polyreactivity”; for “QVQHVESGGGLVQAGGSLRLSCAASGFISYFYAMGWYRQAPGKERELVPVNTQSGGSTYFADSVKGRFTISRDNAKNTVYLQMNSLKPEDTAVYYCNADTVRDYPFFSVSYYYWGQGTQVTVSS” it is “low polyreactivity”. The entry for “QFQLVESGGGLVHAGGSLRLSCASSGSIFVVYAMGWYRQAPGKEREFVASIRTGGSTNYADSVKGRFTISRDNAKNTVYLQMNSLKPEDTAVYYCAAASWNSNRHYYVARYYYWGQGTQVTVSS” is “high polyreactivity”; for “QVQLVESGGGLVQAGGSLRLSCAASGSIFVHYAMGWYRQAPGKERELVARISWRGNTYYADSVKGRFTISRDNAKNTVYLQMNSLKPEDTAVYYCAAEYFWYYYYLMDYWGQGTQVTVSS” it is “low polyreactivity”. For the sequence “QVQLVESGGGLVQAAGSLRLSCAASGFTLTGNAMGWYRQATGKERELVAAISRNGGSTFYADSVKGRFTISRDNAKNTVFLQMNSLKPEDTAVYYCNASRYRHSAYKYDSWGQGTQVTVSS”, the “polyreactivity (PSR sort gate)” value was “high polyreactivity”. The entry for “QVQLVESGGGLVQAGGSLRLSCAASGSYTMGWYRQAPGKERELVAAISKSGGSTYYADSVKGRFTISRDNAKNTVYLQMNRLKPEDTAVYYCAAVGWWGTYDYWGQGTQVTVSS” is “high polyreactivity”. The entry for “QFQLEESGGGIVQAGGSLRLSCAASGSTFYYNAMGWYRQAPGKERDLVAAITGSGTGTNYADSVKGRFTISRDNAKITVYLQMNSLKTEDTAVYYCAADYVWRGDPINSYLSWYVYWGQGTQVTVSS” is “low polyreactivity”; for “QVQLVESGGGLVQAGGSLRLSCAASGGTFWAYTMGWYRQAPGKERELVATISFGTGNTYYADSVKGRFTISRDNAKNTVYLQMNSLKPEDTAVYYCAAQWPELTRSYVTVEVEYWGQGTQVTVSS” it is “low polyreactivity”; for “QVQLVESGGGLVQAGGSLRLSCAASGSTFPVYAMGWYRQAPGKERELVAAISWRGDSTYYADSVKGRFTISRDNAKNTVYLQMNSLKPEDTAVYYCAASTGSVVRRYYYWGQGTQVTVSS” it is “high polyreactivity”. The entry for “QVQLVESGGGLVQAGGSLRLSCAASGRIFVLNAMGWYRQAPGKERELVAAITFSGGRTYYADSVKGRFTISRDNAKNTVYLQMNSLKPEDTAVYYCATRQDWRRTYGYWGQGTQVTVSS” is “low polyreactivity”; for “QVQLVESGGGLVQAGGSLRLSCAASGSIFKSYAMGWYRQAPGKERELVAVISDSGSTYYADSVKGRFTISRDNAKNTVYLQMNSLKPEDTAVYYCRGRGRRNEYWGQGTQVTVSS” it is “high polyreactivity”; for “QVQLVESGGGLFQAGGSLRLSCAASGITFKGYTMGWYRQAPGKERELVATISRGGRTYADSVKGRFTISRDNAKNTVLLQMNSLKPEDTAVYYCAADKYWAQNDYWGQGTQVTVSS” it is “low polyreactivity”.

These data come from the nanobody polyreactivity screen of Harvey et al. (2022).
